This note sets out measurements from PMC3458577 (Nucleic Acids Research, 2012).

This experiment has as its target Recombinant human WRN protein (wild type) (human, UniProt Q14191 1-1432). The experiment in a line: co-IP.

Sequence of Recombinant human WRN protein (wild type) (Q14191 whole entry): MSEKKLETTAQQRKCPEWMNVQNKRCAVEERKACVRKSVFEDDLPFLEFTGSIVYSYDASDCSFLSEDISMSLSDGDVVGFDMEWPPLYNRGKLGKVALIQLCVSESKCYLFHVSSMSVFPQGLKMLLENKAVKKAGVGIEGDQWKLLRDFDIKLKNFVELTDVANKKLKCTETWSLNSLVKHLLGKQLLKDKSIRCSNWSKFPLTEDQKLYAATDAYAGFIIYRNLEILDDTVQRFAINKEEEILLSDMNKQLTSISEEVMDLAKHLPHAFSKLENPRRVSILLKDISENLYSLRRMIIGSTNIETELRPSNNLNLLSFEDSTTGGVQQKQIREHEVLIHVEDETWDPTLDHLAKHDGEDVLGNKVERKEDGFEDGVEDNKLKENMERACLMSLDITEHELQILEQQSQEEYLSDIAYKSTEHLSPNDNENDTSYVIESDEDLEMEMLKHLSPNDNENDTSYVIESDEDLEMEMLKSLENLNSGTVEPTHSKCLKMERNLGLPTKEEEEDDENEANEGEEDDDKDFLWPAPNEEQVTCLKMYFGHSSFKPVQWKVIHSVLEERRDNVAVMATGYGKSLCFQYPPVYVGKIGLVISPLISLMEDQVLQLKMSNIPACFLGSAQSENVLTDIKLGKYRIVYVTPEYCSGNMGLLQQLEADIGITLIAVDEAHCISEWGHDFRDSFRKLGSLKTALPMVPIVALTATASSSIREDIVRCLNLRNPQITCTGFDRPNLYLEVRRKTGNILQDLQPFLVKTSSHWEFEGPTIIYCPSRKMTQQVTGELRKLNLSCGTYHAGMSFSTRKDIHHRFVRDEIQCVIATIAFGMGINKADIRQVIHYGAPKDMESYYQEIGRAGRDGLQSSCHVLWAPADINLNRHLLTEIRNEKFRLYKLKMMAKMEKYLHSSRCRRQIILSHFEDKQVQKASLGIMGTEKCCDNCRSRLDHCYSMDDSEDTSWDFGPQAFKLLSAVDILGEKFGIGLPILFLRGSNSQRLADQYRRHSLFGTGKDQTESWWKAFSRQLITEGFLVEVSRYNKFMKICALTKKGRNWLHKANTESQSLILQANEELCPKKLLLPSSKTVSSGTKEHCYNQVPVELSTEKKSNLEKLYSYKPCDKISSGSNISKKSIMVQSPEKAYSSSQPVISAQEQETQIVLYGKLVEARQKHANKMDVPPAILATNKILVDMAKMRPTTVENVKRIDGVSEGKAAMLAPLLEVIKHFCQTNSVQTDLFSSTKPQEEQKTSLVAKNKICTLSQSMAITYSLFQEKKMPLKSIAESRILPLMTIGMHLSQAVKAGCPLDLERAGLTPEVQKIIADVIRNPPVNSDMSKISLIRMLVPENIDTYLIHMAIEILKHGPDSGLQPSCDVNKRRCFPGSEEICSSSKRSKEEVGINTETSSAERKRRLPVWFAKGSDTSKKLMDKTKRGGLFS

B1: Recombinant human Polλ protein (enzyme, UniProt Q9UGP5 1-575, looked up)
chain: MDPRGILKAFPKRQKIHADASSKVLAKIPRREEGEEAEEWLSSLRAHVVRTGIGRARAELFEKQIVQHGGQLCPAQGPGVTHIVVDEGMDYERALRLLRLPQLPPGAQLVKSAWLSLCLQERRLVDVAGFSIFIPSRYLDHPQPSKAEQDASIPPGTHEALLQTALSPPPPPTRPVSPPQKAKEAPNTQAQPISDDEASDGEETQVSAADLEALISGHYPTSLEGDCEPSPAPAVLDKWVCAQPSSQKATNHNLHITEKLEVLAKAYSVQGDKWRALGYAKAINALKSFHKPVTSYQEACSIPGIGKRMAEKIIEILESGHLRKLDHISESVPVLELFSNIWGAGTKTAQMWYQQGFRSLEDIRSQASLTTQQAIGLKHYSDFLERMPREEATEIEQTVQKAAQAFNSGLLCVACGSYRRGKATCGDVDVLITHPDGRSHRGIFSRLLDSLRQEGFLTDDLVSQEENGQQQKYLGVCRLPGPGRRHRRLDIIVVPYSEFACALLYFTGSAHFNRSMRALAKTKGMSLSEHALSTAVVRNTHGCKVGPGRVLPTPTEKDVFRLLGLPYREPAERDW
With B1, the binding result is on record as “binds”.

B2: (His)6-tagged Polλ244–575 (domain or fragment, human, UniProt Q9UGP5 244-575, looked up)
chain: PSSQKATNHNLHITEKLEVLAKAYSVQGDKWRALGYAKAINALKSFHKPVTSYQEACSIPGIGKRMAEKIIEILESGHLRKLDHISESVPVLELFSNIWGAGTKTAQMWYQQGFRSLEDIRSQASLTTQQAIGLKHYSDFLERMPREEATEIEQTVQKAAQAFNSGLLCVACGSYRRGKATCGDVDVLITHPDGRSHRGIFSRLLDSLRQEGFLTDDLVSQEENGQQQKYLGVCRLPGPGRRHRRLDIIVVPYSEFACALLYFTGSAHFNRSMRALAKTKGMSLSEHALSTAVVRNTHGCKVGPGRVLPTPTEKDVFRLLGLPYREPAERDW
In the case of B2, the binding result is reported as “binds”.
